The nature of data set [1]: Aggregation of immunoconjugates by analytical size exclusion chromatography. Type of data set: physicochemical. The note with it: conjugate with trastuzumab (TBS); Superdex 200 5/150 GL run in PBS. As for the experimental part: Aggregation was measured by analytical size exclusion chromatography (Superdex 200 5/150 GL run in PBS). It was observed that the extent of aggregation depends on the Linker-Payload and the DAR. […] Table 4 also indicates whether the linking group for each conjugate is stable or cleavable.
For orientation: SEC sorts molecules by how far they enter the pores of the column.

A short description of data set [2]: Average drug loading (DAR, drug to antibody ratio) from LC/MS of reduced, deglycosylated conjugates. Conditions: conjugate with trastuzumab (TBS); average number of payload molecules per antibody. An excerpt:
The immunoconjugates prepared as described above were characterized by LC/MS, as illustrated in FIG. 1 for one immunoconjugate. […] The conjugates were characterized in terms of average drug loading for a sample (DAR, drug to antibody ratio) and aggregation (expressed in %).
The DAR value is extrapolated from LC-MS data for reduced and deglycosylated samples. […] HPLC separates the antibody into light and heavy chains, and separates the heavy chain (HC) and light chain (LC) according to the number of Linker-Payload groups per chain. Mass spectral data enables identification of the component species in the mixture, e.g., LC, LC+1, LC+2, HC, HC+1, HC+2, etc. From the average loading on the LC and HC chains, the average drug to antibody ratio (DAR) can be calculated for an ADC (see FIG. 1B). The DAR for a given conjugate sample represents the average number of drug (payload) molecules attached to a tetrameric antibody containing two light chains and two heavy chains.

Consider `CC(C)(C)[C@H](c1nc(-c2cc(F)ccc2F)nn1Cc1ccccc1)N(CCCN)C(=O)CO` [Compound 50], for which the Aggregation % in data set [1] came out at 40%. Also, the DAR in data set [2] was 2.8.
In turn, `C[C@@H](CN)NC(=O)N(C[C@@H]1CNC[C@@H]1F)[C@@H](c1nc(-c2cc(F)ccc2F)cn1Cc1ccccc1)C1CCOCC1` [Compound 19] came in with an Aggregation % in data set [1] of 74.6%. In data set [2], the DAR amounted to 4.7.
`C[C@H](O)C(=O)N(C[C@H]1CNC[C@H]1F)[C@@H](c1nc(-c2cc(F)ccc2F)cn1Cc1ccccc1)C1CCOCC1` [Compound 53] had an Aggregation % in data set [1] of 25.7%. The DAR in data set [2] was determined as 2.7.
`CC(C)(C)[C@H](c1nc(-c2cc(F)ccc2F)cn1Cc1ccccc1)N(CC[C@H](N)CF)C(=O)CN` [Compound 1]: in data set [1], the Aggregation % worked out at 75.8%. Also, the DAR in data set [2] amounted to 5.
For `C[C@H](O)C(=O)N(CC[C@H](N)CF)[C@@H](c1nc(-c2cc(F)ccc2F)cn1Cc1ccccc1)C1CCS(=O)(=O)CC1` [Compound 37] the same measures were 68% and 5.6.
In data set [1], `C[C@@H]1CN(C(=O)N(C[C@@H]2CNC[C@@H]2F)[C@@H](c2nc(-c3cc(F)ccc3F)nn2Cc2cccc(F)c2)C(C)(C)C)C[C@H](C)O1` [Compound 26] came in with an Aggregation % of 33.5%. For the same compound, the DAR in data set [2] is reported as 2.6.
For `COC(=O)N(C[C@@H](F)CN)[C@@H](c1nc(-c2cc(F)ccc2F)cn1Cc1ccccc1)C(C)(C)C` [Compound 41] the same measures were 23.8% and 4.5.
Turning to `C[C@H](O)C(=O)N(CC[C@H](N)CF)[C@@H](c1nc(-c2cc(F)ccc2F)cn1CC1CCOCC1)C(C)(C)C` [Compound 11], in data set [1], the Aggregation % is listed as 4%. For the same compound, the DAR in data set [2] was found to be 4.
`NCCCCCCSCC(=O)N(C[C@@H]1CNC[C@@H]1F)[C@@H](c1nc(-c2cc(F)ccc2F)cn1Cc1ccccc1)C1CCOCC1` [Compound 57] yielded an Aggregation % in data set [1] of 57%. Also, in data set [2], the DAR came out at 5.
In data set [1], `C[C@H](O)C(=O)N(CC[C@H](N)CF)[C@@H](c1nc(-c2cc(F)ccc2F)cn1Cc1ccccc1)C1CCOCC1` [Compound 46] registered an Aggregation % of 74.1%. In data set [2], the DAR was 4.7.
As to `O=C([C@H]1CNCCO1)N(C[C@@H]1CNC[C@@H]1F)[C@@H](c1nc(-c2cc(F)ccc2F)cn1Cc1ccccc1)C1CCOCC1` [Compound 69], the Aggregation % in data set [1] is given as 4.9%. In addition, the DAR in data set [2] is 6.
With `O=C(NC[C@H](O)CO)N(C[C@@H]1CNC[C@@H]1F)[C@@H](c1nc(-c2cc(F)ccc2F)cn1Cc1ccccc1)C1CCOCC1` [Compound 74], the Aggregation % in data set [1] worked out at 39.1%. For the same compound, the DAR in data set [2] worked out at 3.
Turning to `C[C@@H](CO)NC(=O)N(C[C@@H]1CNC[C@@H]1F)[C@@H](c1nc(-c2cc(F)ccc2F)cn1Cc1ccccc1)C1CCOCC1` [Compound 17], in data set [1], the Aggregation % was 55%. Also, the DAR in data set [2] is 5.8.
As to `CC(C)(C)[C@H](c1nc(-c2cc(F)ccc2F)nn1Cc1ccccc1)N(CC[C@@H](N)CF)C(=O)N1CCSCC1` [Compound 43], in data set [1], the Aggregation % was determined as 7.7%. For the same compound, the DAR in data set [2] is on record as 6.1.
In data set [1], `NCCSCC(=O)N(C[C@@H]1CNC[C@@H]1F)[C@@H](c1nc(-c2cc(F)ccc2F)cn1Cc1ccccc1)C1CCOCC1` [Compound 18] yielded an Aggregation % of 58.4%. In data set [2], the DAR was 3.
`CC(C)(C)[C@H](c1nc(-c2cc(F)ccc2F)nn1Cc1ccccc1)N(CCCN)C(=O)N1CCC[C@H]1CO` [Compound 28]: the Aggregation % in data set [1] turned out to be 63.6%. Also, in data set [2], the DAR was determined as 3.6.
For `CNC(=O)N(CC[C@@H](N)CF)[C@@H](c1nc(-c2cc(F)ccc2F)cn1Cc1ccccc1)C(C)(C)C` [Compound 27] the same measures were 12.1% and 3.4.
For `CC(C)(C)[C@H](c1nc(-c2cc(F)ccc2F)cn1Cc1ccccc1)N(CC[C@H]1COCCN1)C(=O)c1cccnc1` [Compound 36] the same measures were 40% and 2.6.
On the same counts, the results for `C[C@H](O)C(=O)N(CCCN)[C@@H](c1nc(-c2cc(F)ccc2F)nn1Cc1ccccc1)C(C)(C)C` [Compound 7] are 44.4% and 2.7.
Regarding `C[C@H](O)C(=O)N(C[C@@H]1CNC[C@@H]1F)[C@H](c1nc(-c2cc(F)ccc2F)cn1Cc1ccccc1)C1CCS(=O)(=O)CC1` [Compound 47], the Aggregation % in data set [1] amounted to 65.2%. For the same compound, the DAR in data set [2] is on record as 5.1.
With `CSCCC(=O)N(C[C@@H]1CNC[C@@H]1F)[C@@H](c1nc(-c2cc(F)ccc2F)cn1Cc1cccc(F)c1)C(C)(C)C` [Compound 9], the Aggregation % in data set [1] was determined as 84.9%. For the same compound, the DAR in data set [2] stood at 6.
In data set [1], `CC(C)(C)[C@H](c1nc(-c2cc(F)ccc2F)cn1Cc1ccccc1)N(CC[C@@H]1COCCN1)C(=O)CO` [Compound 6] had an Aggregation % of 67.2%. Also, the DAR in data set [2] is reported as 3.
`CC(C)(C)[C@H](c1nc(-c2cc(F)ccc2F)cn1Cc1ccccc1)N(CC[C@H]1COCCN1)C(=O)N1CCOCC1` [Compound 63] came in with an Aggregation % in data set [1] of 53.2%. Besides, the DAR in data set [2] is 4.
For `CC(C)(C)[C@H](c1nc(-c2cc(F)ccc2F)cn1Cc1ccccc1)N(CC[C@@H](N)CF)C(=O)c1cccnc1` [Compound 51] the same measures were 56.5% and 5.6.
As to `C[C@@H]1CN(C(=O)N(CC[C@H](N)CF)[C@@H](c2nc(-c3cc(F)cc(F)c3)nn2Cc2ccccc2)C(C)(C)C)C[C@H](C)O1` [Compound 52], the Aggregation % in data set [1] is reported as 47.4%. The DAR in data set [2] turned out to be 5.2.
As for `CNC(=O)N(C[C@@H]1CNC[C@@H]1F)[C@@H](c1nc(-c2cc(F)ccc2F)cn1Cc1cccc(F)c1)C(C)(C)C` [Compound 40], the Aggregation % in data set [1] turned out to be 9.3%. In addition, the DAR in data set [2] was 4.
In data set [1], `O=C(c1ccccn1)N(C[C@@H]1CN[C@H](CF)C1)[C@@H](c1nc(-c2cc(F)ccc2F)cn1Cc1ccccc1)C1CCOCC1` [Compound 65] registered an Aggregation % of 11.4%. The DAR in data set [2] is on record as 3.2.
On the same counts, the results for `CC(C)(C)[C@H](c1nc(-c2cc(F)ccc2F)cn1Cc1ccccc1)N(CC[C@H]1COCCN1)C(=O)CO` [Compound 5] are 48.7% and 5.4.
Regarding `CC(C)(C)[C@H](c1nc(-c2cc(F)ccc2F)cn1Cc1cccc(F)c1)N(C[C@@H]1CNC[C@@H]1F)C(=O)CCS` [Compound 67], the Aggregation % in data set [1] worked out at 63.2%. For the same compound, the DAR in data set [2] was 3.4.
In data set [1], `CC(C)(C)[C@H](c1nc(-c2cc(F)ccc2F)cn1Cc1ccccc1)N(CC[C@H](N)CF)C(=O)CO[C@@H]1O[C@H](C(=O)O)[C@@H](O)[C@H](O)[C@H]1O` [Compound 55] gave an Aggregation % of 11.5%. Besides, the DAR in data set [2] came out at 3.8.
Compound `O=C(NC[C@@H](O)CO)N(C[C@@H]1CNC[C@@H]1F)[C@@H](c1nc(-c2cc(F)ccc2F)cn1Cc1ccccc1)C1CCOCC1` [Compound 68] returned an Aggregation % in data set [1] of 62.6%. In data set [2], the DAR is listed as 4.6.
The compound `C[C@H](O)C(=O)N(CC[C@@H](N)CF)[C@@H](c1nc(-c2cc(F)ccc2F)cn1Cc1ccccc1)C(C)(C)C` [Compound 29] registered an Aggregation % in data set [1] of 2.9%. Also, the DAR in data set [2] was 2.8.
In data set [1], `C[C@H](O)C(=O)N(CC[C@H](N)CF)[C@@H](c1nc(-c2cc(F)ccc2F)cn1CC1(C)COC1)C(C)(C)C` [Compound 34] had an Aggregation % of 50.5%. Moreover, the DAR in data set [2] came out at 4.4.
On the same counts, the results for `C[C@H](O)C(=O)N(CC[C@H](N)CF)[C@@H](c1nc(-c2cc(F)cc(F)c2F)cn1Cc1ccccc1)C(C)(C)C` [Compound 62] are 48.7% and 2.
In data set [1], `COC(C)(C)[C@H](c1nc(-c2cc(Cl)ccc2F)cn1Cc1cccc(F)c1)N(C[C@@H]1CN[C@H](CF)C1)C(=O)c1cc(C)nn1C` [Compound 59] came in with an Aggregation % of 71%. The DAR in data set [2] is listed as 5.2.
The compound `CC(C)(C)[C@H](c1nc(-c2cc(F)ccc2F)cn1Cc1ccccc1)N(C[C@@H](F)CN)C(=O)N1CCN(S(C)(=O)=O)CC1` [Compound 21] registered an Aggregation % in data set [1] of 39.7%. The DAR in data set [2] came out at 4.7.
The compound `C[C@H](O)C(=O)N(C[C@@H]1CNC[C@@H]1F)[C@@H](c1nc(-c2cc(F)ccc2F)cn1Cc1ccccc1)C1CCS(=O)(=O)CC1` [Compound 38] returned an Aggregation % in data set [1] of 67.2%. Moreover, the DAR in data set [2] came to 5.8.
`CC(C)(C)[C@@H](NC(=O)c1csc(CN)n1)c1nc(-c2cc(F)ccc2F)cn1Cc1ccccc1` [Compound 45] had an Aggregation % in data set [1] of 22%. For the same compound, the DAR in data set [2] stood at 4.8.
For `C[C@H](O)C(=O)N(C[C@@H]1CNC[C@@H]1F)[C@@H](c1nc(-c2cc(F)ccc2F)cn1Cc1ccccc1)C1CCOCC1` [Compound 12] the same measures were 4.7% and 5.
Regarding `C[C@H](O)C(=O)N(CC[C@H](N)CF)[C@@H](c1nc(-c2cc(F)ccc2F)cn1Cc1cccc(F)c1)C(C)(C)C` [Compound 73], the Aggregation % in data set [1] turned out to be 60%. Further, the DAR in data set [2] is listed as 4.5.
`CC(C)(C)[C@@H](NC[C@@H]1CNC[C@@H]1F)c1nc(-c2cc(F)ccc2F)nn1Cc1cccc(F)c1` [Compound 33] came in with an Aggregation % in data set [1] of 29.8%. The DAR in data set [2] is reported as 6.3.
